The record followed here is paper PMC3589550 (Nature structural & molecular biology, 2011).

The labels stand for the following.
B1: vIRF4^153–256 (domain or fragment)
chain: SDTREQSYEEAGAAAPAPPKAPSGLRGRPRKSNRYYNVGDITTEQKAACSVWIPVNEGASTSGMGSSGTRQVTQASSFTWRVPGDPPAPSTLTGPSDPHSSGAG
B2: vIRF4^153–216 (domain or fragment)
chain: SDTREQSYEEAGAAAPAPPKAPSGLRGRPRKSNRYYNVGDITTEQKAACSVWIPVNEGASTSGM
B3: vIRF4^153–256/Δ202–216 (domain or fragment)
chain: SDTREQSYEEAGAAAPAPPKAPSGLRGRPRKSNRYYNVGDITTEQKAACGSSGTRQVTQASSFTWRVPGDPPAPSTLTGPSDPHSSGAG
B4: vIRF4^153–256/Δ202–216/Δ237–256 (domain or fragment)
chain: SDTREQSYEEAGAAAPAPPKAPSGLRGRPRKSNRYYNVGDITTEQKAACGSSGTRQVTQASSFTWRVPG

In this assay the target is HAUSP^62–205 (HAUSP TRAF domain) (UniProt Q93009 62-205). The experiment in a line: ITC.
HAUSP^62–205 (HAUSP TRAF domain), sequence (Q93009 62-205): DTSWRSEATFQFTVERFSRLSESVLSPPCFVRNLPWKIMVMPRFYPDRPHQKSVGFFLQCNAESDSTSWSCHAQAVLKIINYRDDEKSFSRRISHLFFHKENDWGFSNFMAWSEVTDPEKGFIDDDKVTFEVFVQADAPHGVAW
The Kd is the constant that tells how readily two partners part at equilibrium. Read a low Kd as higher affinity. EQGPADDPGEGPSTG [EBNA1^435–449 peptide] yielded a Kd of 480 nM.

Molecule B1 returned a Kd of 76 nM.

For the molecule DLVQELQEEKPSSSHL (peptide, UniProt Q00987 137-152, looked up) [MDM2^137–152 peptide], the Ka was 91000 M⁻¹ and the affinity, expressed as Kd, was 11100 nM.

B2 gave a dissociation constant Kd of 540 nM.

In turn, B3 registered a Kd of 3450 nM.

As to B4, the Kd was 4030 nM.
